Laboratory results from patent US8986682B2, “Method to increase the absorption of unsaturated fatty acids by human infants” (Swedish Orphan Biovitrum AB (publ), priority 2010, dated 2015).
“Also recorded” adds a separate entry of the source.

What was measured:
[1] = Specific activity with PNPB substrate, sodium cholate as bile-salt activator; assay type: biochemical; conditions: after HA-HPLC and SE-HPLC purification
Experimental: Differences in functional properties are observed between rhBSSL-CHO and BSSL-MAM and from rhBSSL-OVI. The specific activity of rhBSSL-CHO is observed to be higher than that of the other forms of BSSL. The specific activities of BSSL-MAM and rhBSSL-OVI are only 80% of that of rhBSSL-CHO based on mass. Each sample is specifically purified by HA-HPLC and SE-HPLC before determination of specific activity. Specific activity is determined using 4-nitrophenyl ester butyric acid (PNPB) as a substrate for BSSL, and detection of the release of 4-nitrophenol. Briefly, a dilution series of rhBSSL (for example, from 20 to 160 ng activity/mL) is prepared in PBS with 0.1% BSA. 200 μl of these rhBSSL solutions is added to 25 μl of an activation solution containing 20 mM sodium cholate (as bile-salt activator) in PBS with 0.1% BSA. These solutions are preincubated in a spectrophotometer at 27° C. for 5 minutes. Just before measuring, 25 μl of a well-mixed substrate solution containing 5 mM PNPB in PBS-Tween is added. The formation of 4-nitrophenol can be detected by its absorbance at 400 nm and the increase in absorbance is measured during 90 seconds. The active amount of BSSL is determined using a standard curve of an rhBSSL reference standard.

[2] = system: preterm infants born before week 32 of gestational age; test: Change in knee-to-heel length (knemometer), studies BVT.BSSL-020/-021; assay type: in vivo, human; conditions: FAS and PP, combined data and by study, one week of treatment
Experimental: The length of the patient's leg was measured from the knee to the heel using a knemometer provided to the sites. Knee-to-heel length was recorded in millimeters on the CRF. To the extent possible, length was measured at approximately the same time each day and by the same person. Three measurements were made and the mean value was entered on the CRF.
Combined Analysis: • The combined statistical analysis of CFA data used the overall CFA values as calculated for each infant/treatment-period from each of the two individual studies. • Change in length (mm): Change in length was defined as the change in length from knee to heel from Day 1 to Day 7 in the first period and Day 10 to Day 16 in the second period. The Exploratory Efficacy Variables were: • Absorption of DHA and AA: Coefficients of absorption of DHA (C22:6 n-3) and AA (C20:4 n-6) measured in feces samples collected during the final 3 days (72 hours) of each treatment period. • Coefficients of absorption of DHA and AA were calculated using the same approach as used for CFA calculations, but using only the amounts of the individual (C22:6 n-3) and (C20:4 n-6) in samples for DHA and AA, respectively. 7.5.2 Efficacy Analysis Methodology […]

[3] = system: preterm infants born before week 32 of gestational age; conditions: in vivo
Source text: The adverse event (AE) reporting period in each study began upon administration of the first dose (Day 1) of investigational medication and ended at the Follow-up Visit (1 week±3 days after the last dose of study drug intake). All AEs that occurred in a patient during the adverse event reporting period were to be reported, whether or not the event was considered medication/product related. In addition, any known untoward event that occurred subsequent to the AE reporting period that the investigator assessed as possibly, probably, or definitely related to the investigational product were also to be reported as an AE.
MedDRA dictionary version 10.0 was used to classify all AEs reported during either study by system organ class (SOC) and preferred term (PT). All summary tables included counts of patients with treatment-emergent adverse events (TEAEs). The assessment of TEAEs was made in each individual study. […] All TEAEs, treatment related TEAEs (definite, probable, and possible), SAEs, and TEAEs leading to withdrawal of study drug were summarized by MedDRA SOC, PT, and treatment. Both the incidence (proportion of patients) and number of each TEAE were summarized. Additionally, TEAEs were summarized by maximum severity (mild, moderate, or severe). An overall summary of TEAEs was presented by treatment sequence and total and presented the number (%) of patients with TEAEs for each treatment sequence allocated to (1) BSSL only; (2) Placebo only; (3) Both BSSL and placebo; and (4) Neither Treatment.

B1: rhBSSL: recombinant human bile-salt-stimulated lipase, SEQ ID. NO. 1, expressed from recombinant CHO cells; used in both clinical trials (protein, listed as Homo sapiens)
chain: AKLGAVYTEGGFVEGVNKKLGLLGDSVDIFKGIPFAAPTKALENPQPHPGWQGTLKAKNFKKRCLQATITQDSTYGDEDCLYLNIWVPQGRKQVSRDLPVMIWIYGGAFLMGSGHGANFLNNYLYDGEEIATRGNVIVVTFNYRVGPLGFLSTGDANLPGNYGLRDQHMAIAWVKRNIAAFGGDPNNITLFGESAGGASVSLQTLSPYNKGLIRRAISQSGVALSPWVIQKNPLFWAKKVAEKVGCPVGDAARMAQCLKVTDPRALTLAYKVPLAGLEYPMLHYVGFVPVIDGDFIPADPINLYANAADIDYIAGTNNMDGHIFASIDMPAINKGNKKVTEEDFYKLVSEFTITKGLRGAKTTFDVYTESWAQDPSQENKKKTVVDFETDVLFLVPTEIALAQHRANAKSAKTYAYLFSHPSRMPVYPKWVGADHADDIQYVFGKPFATPTGYRPQDRTVSKAMIAYWTNFAKTGDPNMGDSAVPTHWEPYTTENSGYLEITKKMGSSSMKRSLRTNFLRYWTLTYLALPTVTDQEATPVPPTGDSEATPVPPTGDSETAPVPPTGDSGAPPVPPTGDSGAPPVPPTGDSGAPPVPPTGDSGAPPVPPTGDSGAPPVPPTGDSGAPPVPPTGDSGAPPVPPTGDAGPPPVPPTGDSGAPPVPPTGDSGAPPVTPTGDSETAPVPPTGDSGAPPVPPTGDSEAAPVPPTDDSKEAQMPAVIRF
- Specific activity compared with the other forms of BSSL [1]: higher
- Change in knee-to-heel length, rhBSSL versus placebo [2]: No noticeable differences; also recorded: No difference
- Urinary tract infection, n (%) of Patients [3]: 1 (1.6%)
